Changes are numbered by the printed parent chain. In names and notes the source's numbering stands.
B1: D136V (protein)
chain: MQLRNPELHLGCALALRFLALVSWDIPGARALDNGLARTPTMGWLHWERFMCNLDCQEEPDSCISEKLFMEMAELMVSEGWKDAGYEYLCIDDCWMAPQRDSEGRLQADPQRFPHGIRQLANYVHSKGLKLGIYAVVGNKTCAGFPGSFGYYDIDAQTFADWGVDLLKFDGCYCDSLENLADGYKHMSLALNRTGRSIVYSCEWPLYMWPFQKPNYTEIRQYCNHWRNFADIDDSWKSIKSILDWTSFNQERIVDVAGPGGWNDPDMLVIGNFGLSWNQQVTQMALWAIMAAPLFMSNDLRHISPQAKALLQDKDVIAINQDPLGKQGYQLRQGDNFEVWERPLSGLAWAVAMINRQEIGGPRSYTIAVASLGKGVACNPACFITQLLPVKRKLGFYEWTSRLRSHINPTGTVLLQLENTMQMSLKDLL
B2: V137D (protein)
chain: B1 chain with V136D, V137D
B3: A143E (protein)
chain: B1 chain with V136D, A143E
B4: A143G (protein)
chain: B1 chain with V136D, A143G
B5: V137I (protein)
chain: B1 chain with V136D, V137I
B6: K140R (protein)
chain: B1 chain with V136D, K140R
B7: G138A (protein)
chain: B1 chain with V136D, G138A
B8: G144C (protein)
chain: B1 chain with V136D, G144C
B9: K140I (protein)
chain: B1 chain with V136D, K140I
B10: K140E (protein)
chain: B1 chain with V136D, K140E
B11: N139H (protein)
chain: B1 chain with V136D, N139H
B12: N139I (protein)
chain: B1 chain with V136D, N139I
B13: K140N (protein)
chain: B1 chain with V136D, K140N
B14: V137L (protein)
chain: B1 chain with V136D, V137L
B15: N139Y (protein)
chain: B1 chain with V136D, N139Y
B16: V137G (protein)
chain: B1 chain with V136D, V137G
B17: G144A (protein)
chain: B1 chain with V136D, G144A
B18: N139K (protein)
chain: B1 chain with V136D, N139K
B19: K140Q (protein)
chain: B1 chain with V136D, K140Q
B20: V137A (protein)
chain: B1 chain with V136D, V137A
B21: T141S (protein)
chain: B1 chain with V136D, T141S

System: mutant form of α-Gal A expressed in HEK-293 cells
Test: HEK assay (GLP HEK / Migalastat Amenability Assay): α-Gal A activity in lysates of transiently transfected HEK-293 cells incubated with or without 10 μM migalastat
Assay type: cell-based, human
Settings: 10 μM migalastat versus baseline
Outline: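 HEK-293 cells transiently transfected with mutant α-Gal A and incubated with or without 10 μM migalastat; lysate activity given as nmol free 4-MU released per mg protein per hour. Values are mean±SEM.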

Molecule | Absolute increase (% WT)
B1 | 74.2 % WT
B2 | 11.6 % WT
B3 | 11.4 % WT
B4 | 51.9 % WT
B5 | 24.7 % WT
B6 | 39.4 % WT
B7 | 20.1 % WT
B8 | 7.1 % WT
B9 | 49.4 % WT
B10 | 59.5 % WT
B11 | 28.1 % WT
B12 | 26.4 % WT
B13 | 40.3 % WT
B14 | 11.7 % WT
B15 | 11.7 % WT
B16 | 52.4 % WT
B17 | 15.5 % WT
B18 | 33.8 % WT
B19 | 42.5 % WT
B20 | 45.4 % WT
B21 | 34.4 % WT

Same assay, conditions: 10 μM migalastat α-Gal A activity relative to baseline

Molecule | Relative increase
B1 | 2.8
B2 | 9.2
B3 | 1.5
B4 | 1.8
B5 | 1.8
B6 | 1.3
B7 | 2.3
B8 | 3.9
B9 | 2.1
B10 | 1.8
B11 | 1.4
B12 | 1.5
B13 | 1.4
B14 | 1.3
B15 | 1.2
B16 | 2.2
B17 | 1.3
B18 | 1.3
B19 | 1.4
B20 | 1.8
B21 | 1.5

Same assay, conditions: 10 μM migalastat, 5 days; percentage of baseline wild-type α-Gal A activity; mean ± SEM

Molecule | 10 μM migalastat α-Gal A activity (% WT)
B1 | 116.4 ± 5.5 % WT
B2 | 13 ± 1.6 % WT
B3 | 37.3 ± 1.8 % WT
B4 | 119.7 ± 5.9 % WT
B5 | 57.4 ± 2.5 % WT
B6 | 180.9 ± 15 % WT
B7 | 34.5 ± 1.5 % WT
B8 | 9.5 ± 0.8 % WT
B9 | 92.1 ± 7.1 % WT
B10 | 132.1 ± 9 % WT
B11 | 101.2 ± 7.1 % WT
B12 | 78.3 ± 4.5 % WT
B13 | 154.1 ± 11.1 % WT
B14 | 53.3 ± 3.7 % WT
B15 | 64 ± 5.2 % WT
B16 | 98.2 ± 5 % WT
B17 | 60.4 ± 2.8 % WT
B18 | 127.4 ± 8.8 % WT
B19 | 165.7 ± 9.7 % WT
B20 | 106.6 ± 5.9 % WT
B21 | 98.2 ± 9.1 % WT

Same assay, conditions: absence of migalastat; percentage of baseline wild-type α-Gal A activity; mean ± SEM

Molecule | Baseline α-Gal A activity (% WT)
B1 | 42.2 ± 1.7 % WT
B2 | 1.4 ± 0.2 % WT
B3 | 25.9 ± 1.5 % WT
B4 | 67.8 ± 3.4 % WT
B5 | 32.8 ± 1.6 % WT
B6 | 141.5 ± 12 % WT
B7 | 14.4 ± 1.1 % WT
B8 | 2.5 ± 0.2 % WT
B9 | 42.7 ± 3.3 % WT
B10 | 72.6 ± 5.8 % WT
B11 | 73.1 ± 5.4 % WT
B12 | 51.8 ± 5.1 % WT
B13 | 113.8 ± 9.5 % WT
B14 | 41.6 ± 2.1 % WT
B15 | 52.3 ± 3.8 % WT
B16 | 45.9 ± 4.2 % WT
B17 | 44.9 ± 3.6 % WT
B18 | 93.6 ± 5.8 % WT
B19 | 123.2 ± 12.1 % WT
B20 | 61.1 ± 4.6 % WT
B21 | 63.8 ± 7.1 % WT

Same assay, conditions: lysates of HEK-293 cells transfected with the mutant form, incubated 5 days in the absence of migalastat; mean ± SEM

Molecule | Baseline α-Gal A activity
B1 | 17164 ± 1203 nmol/mg/h
B2 | 516 ± 80 nmol/mg/h
B3 | 7681 ± 439 nmol/mg/h
B4 | 20419 ± 1260 nmol/mg/h
B5 | 12148 ± 597 nmol/mg/h
B6 | 50348 ± 3558 nmol/mg/h
B7 | 4768 ± 480 nmol/mg/h
B8 | 759 ± 69 nmol/mg/h
B9 | 15415 ± 1294 nmol/mg/h
B10 | 26053 ± 1925 nmol/mg/h
B11 | 29115 ± 2336 nmol/mg/h
B12 | 17180 ± 1455 nmol/mg/h
B13 | 40575 ± 2928 nmol/mg/h
B14 | 15359 ± 656 nmol/mg/h
B15 | 19998 ± 1682 nmol/mg/h
B16 | 16515 ± 1170 nmol/mg/h
B17 | 20304 ± 1590 nmol/mg/h
B18 | 33797 ± 2244 nmol/mg/h
B19 | 42995 ± 3236 nmol/mg/h
B20 | 22393 ± 1429 nmol/mg/h
B21 | 22602 ± 2254 nmol/mg/h

Same assay, conditions: lysates of HEK-293 cells transfected with the mutant form, incubated 5 days with 10 μM migalastat; mean ± SEM

Molecule | 10 μM migalastat α-Gal A activity
B1 | 47647 ± 3779 nmol/mg/h
B2 | 4757 ± 618 nmol/mg/h
B3 | 11458 ± 884 nmol/mg/h
B4 | 36821 ± 2997 nmol/mg/h
B5 | 21313 ± 987 nmol/mg/h
B6 | 62820 ± 3401 nmol/mg/h
B7 | 11112 ± 732 nmol/mg/h
B8 | 2988 ± 262 nmol/mg/h
B9 | 32440 ± 2092 nmol/mg/h
B10 | 46670 ± 2685 nmol/mg/h
B11 | 40678 ± 3158 nmol/mg/h
B12 | 26326 ± 1627 nmol/mg/h
B13 | 54681 ± 3030 nmol/mg/h
B14 | 19794 ± 1475 nmol/mg/h
B15 | 24303 ± 2079 nmol/mg/h
B16 | 36258 ± 1701 nmol/mg/h
B17 | 27268 ± 1039 nmol/mg/h
B18 | 45090 ± 2667 nmol/mg/h
B19 | 59162 ± 3600 nmol/mg/h
B20 | 40016 ± 2785 nmol/mg/h
B21 | 34806 ± 2770 nmol/mg/h

— patent US11833164B2, “Methods of treating Fabry disease in patients having a mutation in the GLA gene” (Amicus Therapeutics, Inc., priority 2019, dated 2023)
